Laboratory results as given in patent US20190336427A1, “NOVEL PROTEIN TRANSDUCTION DOMAIN AND USE THEREOF” (BIOCELTRAN CO., LTD., priority 2016, published 2019).
Ends that are not written are not given here.

What was measured:
[1] = tested on: porcine skin; experiment: Skin penetration of cell-penetrating peptide-FGF2 mixture by tissue staining, Franz cells with porcine skin; type: in vitro ADME; conditions: 500 μg, 24 hours
Protocol: For skin penetration analysis of FGF2 through tissue staining, Franz cells using the porcine skin were treated with equal amounts (500 μg) of FGF2, PEP1-FGF2 and a STeP-FGF2 mixture. After 24 hours, the porcine skin between the Franz cells was taken out, washed with distilled water and subjected to tissue staining. The porcine skin site exposed to donor cells was cut and then immobilized in 10% buffered formalin to produce a paraffin block, and tissues were sectioned to 7 μm using a microtome. Then, the tissues were mounted on a slide, paraffin was removed, the residue was hydrated and tissue fragments were blocked for 30 minutes. The blocked tissues were treated with […] (cell signaling, green) and reacted at 4° C. for 18 hours. On the following day, the resulting tissues were washed with PBST, treated with an Alexa Fluor 488 secondary antibody at room temperature for 2 hours and washed with PBST again. Then, the tissue fragments were dyed with a solution of a nuclear staining reagent (DAPI) diluted at 1/5000 in PBS in the absence of light for 10 minutes and washed with PBS three times. The tissue fragments were mounted and then analyzed with a confocal scanning laser microscope.

[2] = tested on: HaCaT cells; experiment: Cytotoxicity of cell-penetrating peptides (WST, cell viability); conditions: HaCaT cells, 2.5, 5 and 10 μM peptide, 24 hours
Protocol: Cytotoxicity was evaluated to identify whether or not the peptides of the present invention could be harmlessly used to deliver polymers in vivo.
HaCaT cells cultured in DMEM containing 10% FBS were seeded in a unit dose of 2.5×10^4 on a 96-well plate, cultured for 24 hours and washed with HBSS twice. Cell-penetrating peptides, PEP1 and STeP, were dissolved at different concentrations of 50 μM, 100 μM and 200 μM in D.W. and diluted in a medium such that the final concentrations reached 2.5 μM, 5 μM and 10 μM, and the cells were treated with the resulting peptides and then reacted for 24 hours at 37° C. in a 5% CO2 incubator. After culture, the supernatant was removed, a WST solution was diluted in a medium in a ratio of 1:9 and the cells were treated with the medium. After culturing for 3 hours, absorbance was measured at 450 nm, and cell viability was calculated for cells of a peptide non-treatment group and cells of a peptide treatment group.

[3] = tested on: porcine skin; experiment: Skin penetration of cell-penetrating peptide-FITC mixture, Franz cells with porcine skin; type: in vitro ADME; conditions: 100 μM mixture, FITC:peptide molar ratio 1:0 and 1:2
Protocol: Franz cells (diameter of 9 mm) were used in order to identify whether or not penetration of FITC into the skin as well as cells was improved under the condition of non-covalent bonding to STeP.
FITC and cell-penetrating peptides (PEP1, STeP) dissolved in borax buffer (pH 8.0) were prepared. The FITC and cell-penetrating peptides (PEP1, STeP) were mixed in a molar ratio of 1:0 and 1:2, and reacted at 37° C. for 30 minutes, and the top of Franz cells were treated with 100 μM of the finally obtained cell-penetrating peptide-FITC mixture. The porcine skin was isolated and washed with PBS three times. After washing, the cryo mold was treated with an OCT embedding matrix (Cell Path Ltd., UK) and tissues were frozen at −70° C. The frozen tissues were cross-sectioned to a thickness of 7 μm at −20° C. using a cryotome (HM520, Germany) to produce fragment slides. To dye the nucleus of the skin cells, tissue fragments fixed to a slide glass were dyed with a solution of a nuclear staining reagent (DAPI) diluted at 1/5000 in PBS in the absence of light for 10 minutes and washed with PBS three times. The resulting cells were mounted and then analyzed with a confocal scanning laser microscope.

[4] = molecular target: EGF receptors in cells (mouse fibroblasts, Balb/c 3T3 clone A31 cells) (mouse) (UniProt Q01279); experiment: cell-based or functional assay

## FGF2: fibroblast growth factor-2, basic fibroblast growth factor
[1]
  skin penetration of FGF2 (delivery into porcine skin tissues): not delivered into porcine skin tissues at all

## KETWWETWWTEWSQPYGRKKRRQRRRC [STeP]
[2]
  cytotoxicity (cell viability): did not exhibit cytotoxicity

## fluorescein isothiocyanate [FITC]
[3]
  skin penetration of FITC: present in the cornified layer of the porcine skin

## PEP1-EGF recombinant protein (from UniProt P01133 23-1207) (ligand)
[4]
  Cell proliferation activity (unit/mM), WST assay on Balb/c 3T3 clone A31 cells: 1.39e+07 unit/mM
